One experiment concerns the target Fc protein (control). The experiment can be described thus: native gel or EMSA; Blue Native PAGE of the purified recombinant proteins in aqueous solution.
The next experiment addresses T1, mouse podoplanin (PDPN) (mouse (endogenous in primary cultured …, UniProt Q62011 23-172)).
T1 sequence (looked up): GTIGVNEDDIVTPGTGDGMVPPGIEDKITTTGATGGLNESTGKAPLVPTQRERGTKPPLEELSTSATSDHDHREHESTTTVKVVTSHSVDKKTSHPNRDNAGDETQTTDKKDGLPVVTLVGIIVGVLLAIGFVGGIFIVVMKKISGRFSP
The experiment can be described thus: cell-based or functional assay.

From paper PMC9792514, “C-type lectin-like receptor (CLEC)-2, the ligand of podoplanin, induces morphological changes in podocytes” (Scientific Reports, 2022) come the findings set out here.

In the case of “Fc protein (control) (domain or fragment)”, the stoichiometry N in the experiment with Fc protein (control) is 4.

B1: StepTagII-3FLAG-CLEC-2, a fusion of StrepTactin FLAG double tags and the C-terminal extracellular domain of mouse CLEC-2 (51-229) (domain or fragment, UniProt Q9JL99 51-229, looked up)
chain: GIMSVTQQKYLLAEKENLSATLQQLAKKFCQELIRQSEIKTKSTFEHKCSPCATKWRYHGDSCYGFFRRNLTWEESKQYCTEQNATLVKTASQSTLDYIAERITSVRWIGLSRQNSKKDWMWEDSSVLRKNGINLSGNTEENMNCAYLHNGKIHPASCKERHYLICERNAGMTRVDQLL
Regarding B1, in the experiment with mouse podoplanin (PDPN), the “pERM/ERM ratio by Western blot of glomerular lysate after infusion of FLAG-CLEC-2 (5 ug/g body weight), against controls” value was 0.65 fold.
